We go through six molecules from patent US20090325867A1, “RECEPTOR-SPECIFIC TUMOUR NECROSIS FACTOR-RELATED APOPTOSIS-INDUCING LIGAND (TRAIL) VARIANTS” (MEDICAL RESEARCH COUNCIL, priority 2005, published 2009).

Numbering of substitutions follows the chain as printed. In names and notes the source's numbering stands. Entries after “also recorded” stand apart in the source; their conditions may differ.

First the molecules themselves.
B1: TRAIL.R1-4: 6His TRAIL 95-281 with 199Val, 201Arg, 213Trp and 215Asp (protein)
chain: TSEETISTVQEKQQNISPLVRERGPQRVAAHITGTRGRSNTLSSPNSKNEKALGRKINSWESSRSGHSFLSNLHLRNGELVIHEKGFYYIYSQTYFRFQEEIKEVTRNDKQMVQYIYKWTDYPDPILLMKSARNSCWSKDAEYGLYSIYQGGIFELKENDRIFVSVTNEHLIDMDHEASFFGAFLVG
B2: TRAIL.R1-5a: His-TRAIL (95-281) with 189Ala, 199Val, 201Arg, 213Trp, 215Asp (protein)
chain: B1 chain with Y95A
B3: TRAIL.R1-2: His-TRAIL (95-281) with 213Trp and 215Asp (Y213W;S215D) (protein)
chain: B1 chain with V105N, R107K
B4: TRAIL.R1-1: His-TRAIL (95-281) with single substitution Tyr189Ala (protein)
chain: B1 chain with Y95A, V105N, R107K, W119Y, D121S
B5: TRAIL N199V: Asn199Val single mutant of His-TRAIL (protein)
chain: B1 chain with R107K, W119Y, D121S
B6: TRAIL R191L: Arg191Leu single mutant of His-TRAIL (protein)
chain: B1 chain with R97L, V105N, R107K, W119Y, D121S

One test deals with Ramos cells. The test is described as follows: Apoptosis by phosphatidylserine (PS) externalization in Ramos cells. Particulars: 4 h exposure, 500 ng ml^−, Mean ± SEM of at least three determinations. It is filed as cell-based. On the procedure:
(§1) Cells were also exposed to HGS-ETR1 or HGSETR2 (1 μg ml^−1). C: Ramos or Jurkat cells were pre-incubated for 30 min either alone or with TRAIL-R1 blocking Ab or TRAIL-R2 neutralizing Ab (5 μg ml^−1). […] D: Ramos and Jurkat cells were exposed to wt TRAIL or TRAIL mutants as described above and processing of caspase-3 and -8 determined by Western blot analysis. The asterisk indicates a non-specific band. The lower panel of the blot for detection of the caspase-8 p18 subunit was exposed for twice as long as the upper panel. Apoptosis was assessed by phosphatidylserine externalization and results expressed as the Means±SEM of at least 3 separate determinations.
(§2) Ramos, an Epstein-Barr virus-negative Burkitt's lymphoma cell line, and Jurkat T cells (clone E6-1) were cultured as described (MacFarlane et al (2005 Cell Death and Differentiation vol 12 pages 773-782)). Blood samples were obtained from CLL patients, with patient consent and local ethical committee approval and CLL cells purified as described (MacFarlane et al (2002 Oncogene 21, 6809-6818). Cells were incubated for 16 h with depsipeptide (10 nM), provided by Dr. E. Sausville (NCI, USA). Cells were then cultured for a further 6 h with either HGSETR1 or HGS-ETR2, agonistic mAbs to TRAIL-R1 or -R2, respectively (Human Genome Sciences, Rockville, Md.), His-TRAIL-LE (a recombinant TRAIL with low endotoxin—Alexis Corporation, Nottingham, UK), His-TRAIL, a similar form of human recombinant TRAIL (MacFarlane et al (1997 J Biol Chem 272, 25417-25420)) but not further purified to reduce endotoxin levels or a mutant form of His-TRAIL as described (MacFarlane et al., 2005 ibid.). Cell lines were also pre-incubated for 30 min with a TRAIL-R1 blocking Ab and a TRAIL-R2 neutralizing Ab from Alexis and R&D systems, respectively, prior to exposure to TRAIL. Freshly isolated cells from patients with MCL were isolated, purified and incubated with different forms of TRAIL as described above for CLL cells. Samples were either analyzed immediately for apoptosis or stored at −80° C. for subsequent Western blotting. Other methods and reagents were as described (Inoue (2004 Cell Death Differ 11 Suppl 2, S193-206); MacFarlane et al., 2005 ibid).
(§3) Apoptosis was quantified by phosphatidylserine (PS) externalization in the presence of propidium iodide as described (MacFarlane et al., 2002 ibid.). Samples for Western blot analysis were prepared and caspase processing detected as described (Inoue et al., 2004 ibid.; MacFarlane et al., 2005 ibid.).
Ramos and Jurkat T cells (clone E6-1) were cultured as described (MacFarlane et al, 2005 ibid.). The breast tumour cell line, MCF-7 (clone F43) was cultured as described previously (MacFarlane et al., 2000 J. Cell Biol. 148, 1239-1254). Cells were cultured for either 4 h (Ramos and Jurkat) or 6 h (MCF-7) with His-TRAIL (MacFarlane et al, 1997 J Biol Chem 272, 25417-25420), HGS-ETR1 or HGS-ETR2 (Human Genome Sciences), or a mutant form of His-TRAIL (MacFarlane et al, 2005 ibid.). Samples were analyzed for apoptosis, Western blotting, or TRAIL DISC activation as described (MacFarlane et al, 2005 ibid.; MacFarlane et al. 2002 Oncogene 21, 6809-6818). Mutants of His-TRAIL (residues 95-281) were generated using the Quik-Change site-directed mutagenesis kit (Stratagene, Calif.), confirmed by DNA sequencing, expressed in E. coli and purified as described (MacFarlane et al, 1997 ibid.). For siRNA targeting of TRAIL-R1/-R2, MCF-7 cells were seeded into six-well plates immediately prior to effectene-mediated RNAi transfection with either a negative control siRNA (30 nM, Ambion, #4611), or preannealed siRNA oligonucleotides for TRAIL-R1 or TRAIL-R2 (30 nM, Ambion), with the sequence and validity described (Ren et al, 2004 Mol. Biol. Cell vol 15 pp 5064-5074). After 40 h of transfection the cells were collected and total TRAIL-R1 or TRAIL-R2 levels assessed. […]
As for B1, the “% PS+ cells, Ramos” value is 43.5 ± 2.5%.
For B2, the “% PS+ cells, Ramos” value came out at 18.9 ± 0.7%.
For B3, the “% PS+ cells, Ramos” value was 42.2 ± 3.1%.
On the same count and under the same terms, with B4 the figure was 30.6 ± 2.9%.

The test is the same for the next values; noted with them: PS externalization, compared with wt TRAIL.
For B1, the “ability to induce apoptosis in Ramos cells (in words)” value is on record as “retained the activity of wt TRAIL”.
Still for that read-out and setting: with B2 the entry was “markedly diminished activity”.
On the same count and under the same terms, the result for B3 reads “very similar activity to wt TRAIL”.
Take B4: the “ability to induce apoptosis in Ramos cells (in words)” value is listed as “decreased ability to induce apoptosis”.

Another test deals with Jurkat cells. The test is described as follows: Apoptosis by phosphatidylserine (PS) externalization in Jurkat cells. It is filed as cell-based. The following applies: 4 h exposure, 500 ng ml^−, Mean ± SEM of at least three determinations. On the procedure: as §1, with “determinations. […]” for “determinations.”
as §3
Ramos and Jurkat T cells (clone E6-1) were cultured as described (MacFarlane et al, 2005 ibid.). The breast tumour cell line, MCF-7 (clone F43) was cultured as described previously (MacFarlane et al., 2000 J. Cell Biol. 148, 1239-1254). Cells were cultured for either 4 h (Ramos and Jurkat) or 6 h (MCF-7) with His-TRAIL (MacFarlane et al, 1997 J Biol Chem 272, 25417-25420), HGS-ETR1 or HGS-ETR2 (Human Genome Sciences), or a mutant form of His-TRAIL (MacFarlane et al, 2005 ibid.). Samples were analyzed for apoptosis, Western blotting, or TRAIL DISC activation as described (MacFarlane et al, 2005 ibid.; MacFarlane et al. 2002 Oncogene 21, 6809-6818). Mutants of His-TRAIL (residues 95-281) were generated using the Quik-Change site-directed mutagenesis kit (Stratagene, Calif.), confirmed by DNA sequencing, expressed in E. coli and purified as described (MacFarlane et al, 1997 ibid.). For siRNA targeting of TRAIL-R1/-R2, MCF-7 cells were seeded into six-well plates immediately prior to effectene-mediated RNAi transfection with either a negative control siRNA (30 nM, Ambion, #4611), or preannealed siRNA oligonucleotides for TRAIL-R1 or TRAIL-R2 (30 nM, Ambion), with the sequence and validity described (Ren et al, 2004 Mol. Biol. Cell vol 15 pp 5064-5074). After 40 h of transfection the cells were collected and total TRAIL-R1 or TRAIL-R2 levels assessed. Where indicated, RNAi transfected MCF-7 cells were either left untreated or exposed to wt-TRAIL and apoptosis assessed by the extent of Bax activation, determined using the conformation specific Bax MAb, clone 3 (Dewson et al, 2003 Oncogene vol 22 pp 2643-54).
Turning to B1, the “% PS+ cells, Jurkat” value came out at 25.0 ± 2.6%.
With B2, the “% PS+ cells, Jurkat” value worked out at 6.6 ± 0.4%.
Still for that read-out and setting: the result for B3 reads 46.6 ± 3.1%; that for B4, 24.9 ± 2.2%.

The test is the same for the next values; noted with them: PS externalization, compared with wt TRAIL.
For the molecule B1, the “ability to induce apoptosis in Jurkat cells (in words)” value is “decreased activity; also recorded: lost some activity”.
Still for that read-out and setting: with B2 the entry was “complete inactivity”; with B3, “very similar activity to wt TRAIL”; with B4, “decreased ability to induce apoptosis”.

Another test concerns the target T1, TRAIL-R1 (DR4) (Homo sapiens, UniProt O00220).
T1 construct: Ramos and Jurkat cells, which signal predominantly through TRAIL-R1 and TRAIL-R2, respectively; endogenous in cells; host or cells: Ramos cells (Jurkat cells as TRAIL-R2 comparison)
As to the kind of experiment: TRAIL-R1 selective apoptotic signalling (Ramos versus Jurkat cells). It is filed as cell-based. Particulars: from apoptosis in Ramos (TRAIL-R1) and Jurkat (TRAIL-R2) cells.
From the text: Another test involves the assay of the effect in R1- (DR4-) only cells. This is the preferred test for DR4 selectivity as discussed herein. Preferably the ligand is applied to an R1-only signalling cell. Preferably the cell is a Ramos cell. Preferably the read-out is functional activity, preferably death-inducing activity (apoptosis). This is crucial to the test—mere binding is not as robust an indicator as functional induction of death. Thus, preferably a DR4 selective ligand according to the present invention induces death in a DR4 only signalling cell, such as a Ramos cell.
as §2, §3
Referring to FIG. 4: Ramos cells (A) and Jurkat cells (B) were cultured with increasing concentrations of Arg191Leu or Asn199Val single mutants of His-TRAIL ([…]) or His-TRAIL (500 ng/ml), ETR1 or ETR2 (1000 ng/ml) for 4 h. Apoptosis was quantified by measuring the % PS+ cells and results shown in FIG. 4 are the Mean±SEM of three independent experiments. Thus the biological importance TRAIL residues R191 and N199 in TRAIL-R1 selectivity is shown.
As to B1, the “receptor selectivity of apoptotic activity (in words)” value (from here on “receptor selectivity”) is given as “good R1 selective activity; also recorded: a degree of selectivity for TRAIL-R1”.
As to B5, the “receptor selectivity” value is listed as “TRAIL-R1 selective”.
In the case of B6, the “receptor selectivity” value is listed as “TRAIL-R1 selective”.
Take B3: the “receptor selectivity” value was “neither specific for TRAIL-R1 nor R2; also recorded: did not show any differential effects”.
